Data from paper PMC9482650, “Quantitative fragmentomics allow affinity mapping of interactomes” (Nature Communications, 2022).

Experiments:
Experiment in all cases: holdup assay
Set-up in all cases: key: below the threshold = too weak to quantify, mostly under pKd 3.1 to 4
Details in all cases: plain residues with an end cap or a label only (N-terminal biotin on a linker: ado-ado)
PTPN3, P26045 = molecular target: PTPN3, P26045
Inadl_4, Q8NI35 = molecular target: Inadl_4, Q8NI35
IL16_3, Q14005 = molecular target: IL16_3, Q14005
Sequence of IL16_3, Q14005 (Q14005 1107-1207): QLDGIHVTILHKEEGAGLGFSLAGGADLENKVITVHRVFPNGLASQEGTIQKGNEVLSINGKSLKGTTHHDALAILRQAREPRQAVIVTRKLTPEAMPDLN

TJP1_3, Q07157 = molecular target: TJP1_3, Q07157
Sequence of TJP1_3, Q07157 (Q07157 416-512): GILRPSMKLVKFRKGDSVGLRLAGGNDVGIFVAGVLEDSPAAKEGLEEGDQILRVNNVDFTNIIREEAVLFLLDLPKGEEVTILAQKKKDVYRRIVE

SNTB1, Q13884 = molecular target: T1, SNTB1, Q13884
T1 sequence (Q13884 107-205, limits assumed, looked up): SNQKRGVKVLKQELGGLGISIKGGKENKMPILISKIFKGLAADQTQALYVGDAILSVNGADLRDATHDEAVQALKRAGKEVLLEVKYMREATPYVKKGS

CASK, O14936 = molecular target: CASK, O14936
Sequence of CASK, O14936 (O14936 487-570): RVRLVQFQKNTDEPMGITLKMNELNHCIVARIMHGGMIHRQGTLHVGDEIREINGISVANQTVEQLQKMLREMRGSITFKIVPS

SCRIB_1, Q14160 = molecular target: SCRIB_1, Q14160
Sequence of SCRIB_1, Q14160 (Q14160 718-814): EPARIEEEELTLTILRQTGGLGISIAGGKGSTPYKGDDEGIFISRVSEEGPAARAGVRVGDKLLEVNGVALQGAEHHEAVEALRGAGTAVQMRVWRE

HTRA3, P83110 = molecular target: T2, HTRA3, P83110
T2 sequence (P83110 354-453, limits assumed, looked up): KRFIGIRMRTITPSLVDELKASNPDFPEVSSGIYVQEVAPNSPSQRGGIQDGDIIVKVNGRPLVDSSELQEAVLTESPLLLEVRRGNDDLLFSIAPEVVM

RAPGEF6, Q8TEU7 = molecular target: T3, RAPGEF6, Q8TEU7
T3 sequence (Q8TEU7 525-625, limits assumed, looked up): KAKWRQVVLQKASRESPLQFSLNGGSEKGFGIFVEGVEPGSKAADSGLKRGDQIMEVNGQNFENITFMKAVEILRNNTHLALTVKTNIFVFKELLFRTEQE

GIPC2, Q8TF65 = molecular target: GIPC2, Q8TF65
Sequence of GIPC2, Q8TF65 (Q8TF65 112-203): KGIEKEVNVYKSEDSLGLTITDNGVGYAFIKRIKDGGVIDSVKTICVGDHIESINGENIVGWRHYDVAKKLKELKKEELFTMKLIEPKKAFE

SNTG1, Q9NSN8 = molecular target: T4, SNTG1, Q9NSN8
T4 sequence (Q9NSN8 52-150, limits assumed, looked up): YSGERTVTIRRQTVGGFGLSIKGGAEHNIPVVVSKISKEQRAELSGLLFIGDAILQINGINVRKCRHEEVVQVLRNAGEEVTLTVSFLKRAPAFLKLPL

Inadl_10, Q8NI35 = molecular target: Inadl_10, Q8NI35
Sequence of Inadl_10, Q8NI35 (Q8NI35 1673-1763): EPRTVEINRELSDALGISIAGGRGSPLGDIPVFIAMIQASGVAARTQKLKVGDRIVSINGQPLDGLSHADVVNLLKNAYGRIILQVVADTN

NOS1, P29475 = molecular target: NOS1, P29475
Sequence of NOS1, P29475 (P29475 9-101): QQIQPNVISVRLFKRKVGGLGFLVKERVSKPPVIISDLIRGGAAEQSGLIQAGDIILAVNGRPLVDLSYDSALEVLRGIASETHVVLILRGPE

ARHGEF11, O15085 = molecular target: T5, ARHGEF11, O15085
T5 sequence (O15085 42-136, limits assumed, looked up): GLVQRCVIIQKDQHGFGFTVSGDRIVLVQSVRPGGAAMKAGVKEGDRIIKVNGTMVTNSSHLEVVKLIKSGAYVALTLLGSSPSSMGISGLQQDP

GOPC, Q9HD26 = molecular target: GOPC, Q9HD26
TJP3_3, O95049 = molecular target: T6, TJP3_3, O95049
T6 sequence (O95049 375-456, limits assumed, looked up): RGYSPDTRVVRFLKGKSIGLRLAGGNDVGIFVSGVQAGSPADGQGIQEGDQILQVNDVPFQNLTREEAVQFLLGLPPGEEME

SNX27, Q96L92 = molecular target: SNX27, Q96L92
LNX2_2, Q8N448 = molecular target: T7, LNX2_2, Q8N448
T7 sequence (Q8N448 334-432, limits assumed, looked up): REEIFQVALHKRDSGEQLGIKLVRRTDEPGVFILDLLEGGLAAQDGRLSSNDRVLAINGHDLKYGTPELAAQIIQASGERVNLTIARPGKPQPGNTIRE

APBA3_1, O96018 = molecular target: T8, APBA3_1, O96018
T8 sequence (O96018 389-490, limits assumed, looked up): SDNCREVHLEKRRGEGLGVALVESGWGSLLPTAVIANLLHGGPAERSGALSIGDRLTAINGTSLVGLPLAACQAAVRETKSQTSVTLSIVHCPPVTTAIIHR

MAGI2_6, Q86UL8 = molecular target: MAGI2_6, Q86UL8
Sequence of MAGI2_6, Q86UL8 (Q86UL8 1141-1229): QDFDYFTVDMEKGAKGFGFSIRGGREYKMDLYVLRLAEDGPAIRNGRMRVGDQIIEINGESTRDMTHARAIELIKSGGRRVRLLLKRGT

MPDZ_12, O75970 = molecular target: T9, MPDZ_12, O75970
T9 sequence (O75970 1857-1958, limits assumed, looked up): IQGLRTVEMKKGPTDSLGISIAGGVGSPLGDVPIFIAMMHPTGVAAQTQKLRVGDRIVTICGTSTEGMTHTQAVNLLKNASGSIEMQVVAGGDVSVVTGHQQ

DFNB31_3, Q9P202 = molecular target: T10, DFNB31_3, Q9P202
T10 sequence (Q9P202 811-907, limits assumed, looked up): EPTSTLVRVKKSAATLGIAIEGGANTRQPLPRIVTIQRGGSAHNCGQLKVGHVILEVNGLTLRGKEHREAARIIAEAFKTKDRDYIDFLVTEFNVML

PICK1, Q9NRD5 = molecular target: PICK1, Q9NRD5
Sequence of PICK1, Q9NRD5 (Q9NRD5 17-115): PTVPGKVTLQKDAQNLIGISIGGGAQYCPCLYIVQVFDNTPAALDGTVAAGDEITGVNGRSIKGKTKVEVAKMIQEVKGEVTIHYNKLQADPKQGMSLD

NHERF4_2, Q86UT5 = molecular target: NHERF4_2, Q86UT5
Sequence of NHERF4_2, Q86UT5 (Q86UT5 220-308): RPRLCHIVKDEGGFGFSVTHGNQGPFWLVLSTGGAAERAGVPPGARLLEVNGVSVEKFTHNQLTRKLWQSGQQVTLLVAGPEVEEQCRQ

DLG1_2, Q12959 = molecular target: DLG1_2, Q12959
DFNB31_2, Q9P202 = molecular target: T11, DFNB31_2, Q9P202
T11 sequence (Q9P202 274-371, limits assumed, looked up): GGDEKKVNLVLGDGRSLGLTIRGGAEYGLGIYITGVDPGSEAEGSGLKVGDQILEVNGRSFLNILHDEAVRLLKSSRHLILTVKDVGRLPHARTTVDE

DLG1_1, Q12959 = molecular target: DLG1_1, Q12959

Sequence of PTPN3, P26045 (P26045 505-587): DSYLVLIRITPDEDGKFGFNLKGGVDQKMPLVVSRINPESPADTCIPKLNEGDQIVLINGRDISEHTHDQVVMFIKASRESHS
Sequence of Inadl_4, Q8NI35 (Q8NI35 547-651): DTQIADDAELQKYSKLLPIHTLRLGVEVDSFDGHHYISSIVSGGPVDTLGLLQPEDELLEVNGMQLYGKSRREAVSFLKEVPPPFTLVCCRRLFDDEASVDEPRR

PSDSVGKDVF [EGLN1, Q9GZT9]
pKd (PTPN3, P26045): below the threshold | pKd (Inadl_4, Q8NI35): below the threshold | pKd (IL16_3, Q14005): below the threshold | pKd (TJP1_3, Q07157): below the threshold | pKd (SNTB1, Q13884): below the threshold | pKd (CASK, O14936): below the threshold | pKd (SCRIB_1, Q14160): below the threshold | pKd (HTRA3, P83110): below the threshold | pKd (RAPGEF6, Q8TEU7): below the threshold | pKd (GIPC2, Q8TF65): below the threshold | pKd (SNTG1, Q9NSN8): below the threshold | pKd (Inadl_10, Q8NI35): below the threshold | pKd (NOS1, P29475): below the threshold | pKd (ARHGEF11, O15085): below the threshold | pKd (GOPC, Q9HD26): below the threshold | pKd (TJP3_3, O95049): below the threshold | pKd (SNX27, Q96L92): below the threshold | pKd (LNX2_2, Q8N448): below the threshold | pKd (APBA3_1, O96018): below the threshold | pKd (MAGI2_6, Q86UL8): below the threshold | pKd (MPDZ_12, O75970): below the threshold | pKd (DFNB31_3, Q9P202): below the threshold | pKd (PICK1, Q9NRD5): below the threshold | pKd (NHERF4_2, Q86UT5): below the threshold | pKd (DLG1_2, Q12959): below the threshold | pKd (DFNB31_2, Q9P202): below the threshold | pKd (DLG1_1, Q12959): below the threshold

THREVKFTSL [CD46, P15529]
pKd (PTPN3, P26045): 4.83 | pKd (Inadl_4, Q8NI35): below the threshold | pKd (IL16_3, Q14005): below the threshold | pKd (TJP1_3, Q07157): below the threshold | pKd (SNTB1, Q13884): 4.86 | pKd (CASK, O14936): below the threshold | pKd (SCRIB_1, Q14160): 4.95 | pKd (HTRA3, P83110): below the threshold | pKd (RAPGEF6, Q8TEU7): below the threshold | pKd (GIPC2, Q8TF65): below the threshold | pKd (SNTG1, Q9NSN8): below the threshold | pKd (Inadl_10, Q8NI35): 3.49 | pKd (NOS1, P29475): 3.75 | pKd (ARHGEF11, O15085): 4.75 | pKd (GOPC, Q9HD26): 4.05 | pKd (TJP3_3, O95049): below the threshold | pKd (SNX27, Q96L92): 4.35 | pKd (LNX2_2, Q8N448): below the threshold | pKd (APBA3_1, O96018): below the threshold | pKd (MAGI2_6, Q86UL8): 4.59 | pKd (MPDZ_12, O75970): below the threshold | pKd (DFNB31_3, Q9P202): 3.85 | pKd (PICK1, Q9NRD5): 4.08 | pKd (NHERF4_2, Q86UT5): below the threshold | pKd (DLG1_2, Q12959): 3.88 | pKd (DFNB31_2, Q9P202): 4.28 | pKd (DLG1_1, Q12959): below the threshold

QKNKDREYYV [NRXN3, Q9HDB5]
pKd (PTPN3, P26045): 4.37 | pKd (Inadl_4, Q8NI35): below the threshold | pKd (IL16_3, Q14005): below the threshold | pKd (TJP1_3, Q07157): below the threshold | pKd (SNTB1, Q13884): 3.65 | pKd (CASK, O14936): 3.55 | pKd (SCRIB_1, Q14160): below the threshold | pKd (HTRA3, P83110): 4.84 | pKd (RAPGEF6, Q8TEU7): below the threshold | pKd (GIPC2, Q8TF65): 3.52 | pKd (SNTG1, Q9NSN8): 3.58 | pKd (Inadl_10, Q8NI35): below the threshold | pKd (NOS1, P29475): 4.11 | pKd (ARHGEF11, O15085): 4.2 | pKd (GOPC, Q9HD26): below the threshold | pKd (TJP3_3, O95049): 3.98 | pKd (SNX27, Q96L92): 3.64 | pKd (LNX2_2, Q8N448): 4.81 | pKd (APBA3_1, O96018): below the threshold | pKd (MAGI2_6, Q86UL8): below the threshold | pKd (MPDZ_12, O75970): below the threshold | pKd (DFNB31_3, Q9P202): 3.97 | pKd (PICK1, Q9NRD5): below the threshold | pKd (NHERF4_2, Q86UT5): below the threshold | pKd (DLG1_2, Q12959): below the threshold | pKd (DFNB31_2, Q9P202): below the threshold | pKd (DLG1_1, Q12959): below the threshold

KAEEKPPSKV [SCN4B, Q8IWT1]
pKd (PTPN3, P26045): below the threshold | pKd (Inadl_4, Q8NI35): below the threshold | pKd (IL16_3, Q14005): below the threshold | pKd (TJP1_3, Q07157): below the threshold | pKd (SNTB1, Q13884): below the threshold | pKd (CASK, O14936): below the threshold | pKd (SCRIB_1, Q14160): below the threshold | pKd (HTRA3, P83110): below the threshold | pKd (RAPGEF6, Q8TEU7): below the threshold | pKd (GIPC2, Q8TF65): below the threshold | pKd (SNTG1, Q9NSN8): below the threshold | pKd (Inadl_10, Q8NI35): below the threshold | pKd (NOS1, P29475): below the threshold | pKd (ARHGEF11, O15085): below the threshold | pKd (GOPC, Q9HD26): below the threshold | pKd (TJP3_3, O95049): below the threshold | pKd (SNX27, Q96L92): below the threshold | pKd (LNX2_2, Q8N448): below the threshold | pKd (APBA3_1, O96018): below the threshold | pKd (MAGI2_6, Q86UL8): below the threshold | pKd (MPDZ_12, O75970): 3.49 | pKd (DFNB31_3, Q9P202): below the threshold | pKd (PICK1, Q9NRD5): 4.21 | pKd (NHERF4_2, Q86UT5): 3.49 | pKd (DLG1_2, Q12959): 3.52 | pKd (DFNB31_2, Q9P202): below the threshold | pKd (DLG1_1, Q12959): below the threshold

HDDYFYHDEL [RCN2, Q14257]
pKd (PTPN3, P26045): below the threshold | pKd (Inadl_4, Q8NI35): below the threshold | pKd (IL16_3, Q14005): below the threshold | pKd (TJP1_3, Q07157): below the threshold | pKd (SNTB1, Q13884): below the threshold | pKd (CASK, O14936): below the threshold | pKd (SCRIB_1, Q14160): below the threshold | pKd (HTRA3, P83110): below the threshold | pKd (RAPGEF6, Q8TEU7): below the threshold | pKd (GIPC2, Q8TF65): below the threshold | pKd (SNTG1, Q9NSN8): below the threshold | pKd (Inadl_10, Q8NI35): below the threshold | pKd (NOS1, P29475): below the threshold | pKd (ARHGEF11, O15085): 4 | pKd (GOPC, Q9HD26): 3.59 | pKd (TJP3_3, O95049): below the threshold | pKd (SNX27, Q96L92): 3.77 | pKd (LNX2_2, Q8N448): below the threshold | pKd (APBA3_1, O96018): below the threshold | pKd (MAGI2_6, Q86UL8): 3.9 | pKd (MPDZ_12, O75970): below the threshold | pKd (DFNB31_3, Q9P202): below the threshold | pKd (PICK1, Q9NRD5): below the threshold | pKd (NHERF4_2, Q86UT5): below the threshold | pKd (DLG1_2, Q12959): below the threshold | pKd (DFNB31_2, Q9P202): below the threshold | pKd (DLG1_1, Q12959): below the threshold
